Measured values as given in the supplement of paper PMC9233669.
This sample holds only a part of the variants without activity.

Tests used:
biotinyl-Phe-oxazolone = test: self-aminoacylation, catalytic enhancement (BFO) (fold over background); higher = more active; k-Seq, kA / k0A0; sequences stand for … in GGGAAUGGAUCCACAUCUACGAAUUC…UUCACUGCAGACUUGACGAAGCUG
Procedure, shortened: (§1)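 Mutagenized RNA pools (0.43 μM; 21-nt variable region) were treated with 2–1250 μM of each biotinyl-aminoacyl-oxazolone. Conditions were 50 μL HEPES/NaCl/KCl/MgCl2/CaCl2 buffer, 5% acetonitrile, pH 6.9–7.0, room temperature, 90 minutes. Catalytic enhancement, the median kA relative to the uncatalyzed rate, was derived from streptavidin capture, qPCR and Illumina sequencing.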

biotinyl-Ile-oxazolone = test: self-aminoacylation, catalytic enhancement (BIO) (fold over background); higher = more active; k-Seq, kA / k0A0; sequences stand for … in GGGAAUGGAUCCACAUCUACGAAUUC…UUCACUGCAGACUUGACGAAGCUG
Procedure, shortened: as §1

biotinyl-Met-oxazolone = test: self-aminoacylation, catalytic enhancement (BMO) (fold over background); higher = more active; k-Seq, kA / k0A0; sequences stand for … in GGGAAUGGAUCCACAUCUACGAAUUC…UUCACUGCAGACUUGACGAAGCUG
Procedure, shortened: as §1

biotinyl-Val-oxazolone = test: self-aminoacylation, catalytic enhancement (BVO) (fold over background); higher = more active; k-Seq, kA / k0A0; sequences stand for … in GGGAAUGGAUCCACAUCUACGAAUUC…UUCACUGCAGACUUGACGAAGCUG
Procedure, shortened: as §1

biotinyl-Leu-oxazolone = test: self-aminoacylation, catalytic enhancement (BLO) (fold over background); higher = more active; k-Seq, kA / k0A0; sequences stand for … in GGGAAUGGAUCCACAUCUACGAAUUC…UUCACUGCAGACUUGACGAAGCUG
Procedure, shortened: as §1

biotinyl-Trp-oxazolone = test: self-aminoacylation, catalytic enhancement (BWO) (fold over background); higher = more active; k-Seq, kA / k0A0; sequences stand for … in GGGAAUGGAUCCACAUCUACGAAUUC…UUCACUGCAGACUUGACGAAGCUG
Procedure, shortened: as §1

Sequence | self-aminoacylation (biotinyl-Phe-oxazolone) | self-aminoacylation (biotinyl-Ile-oxazolone) | self-aminoacylation (biotinyl-Met-oxazolone) | self-aminoacylation (biotinyl-Val-oxazolone) | self-aminoacylation (biotinyl-Leu-oxazolone) | self-aminoacylation (biotinyl-Trp-oxazolone)
CAGUUUGCUAAUCGUCGCAAG [Fam3.1 aminoacylation ribozyme variant] | 0.994 | 0.971 | 0.993 | 1.07 | 1.32 | 1.05
CAUUUUGCUAAUAGUCGCAAG [Fam3.1 aminoacylation ribozyme variant] | 0.981 | 1.3 | 1.01 | 1.04 | 1.07 | 0.635
CCAAACUUCAAGCAGUCGGUC [Fam1B.1 aminoacylation ribozyme variant] | 0.806 | 1.29 | 1.01 | 1.18 | 1.1 | 0.793
CCAAACUUCAUGCAAUCGGUC [Fam1B.1 aminoacylation ribozyme variant] | 0.558 | 0.959 | 0.703 | 1 | 0.864 | 0.611
CCACAAUUCAAGCAAUCAGUC [Fam1B.1 aminoacylation ribozyme variant] | 1.54 | 0.933 | 0.673 | 0.876 | 0.763 | 0.762
CCACAAUUCAAGCAAUCGGUA [Fam1B.1 aminoacylation ribozyme variant] | 1.33 | 1.26 | 1.19 | 1.17 | 1.43 | 1.13
CCACAAUUCAAGCAAUCGGUG [Fam1B.1 aminoacylation ribozyme variant] | 60.3 | 6.36 | 8.06 | 5.99 | 12.3 | 8.78
CCACAAUUCAAGCAAUCGGUU [Fam1B.1 aminoacylation ribozyme variant] | 1.16 | 1.68 | 1.76 | 1.65 | 1.39 | 1.55
CCACAAUUCAAGCGAUCGGUC [Fam1B.1 aminoacylation ribozyme variant] | 1.53 | 1.37 | 1.28 | 1.47 | 1.56 | 1.12
CCACAAUUUAAGCAAUCGGUC [Fam1B.1 aminoacylation ribozyme variant] | 1.12 | 1.2 | 0.776 | 1.02 | 0.824 | 0.864
CCACACAUCAAGCAAUCGCUC [Fam1B.1 aminoacylation ribozyme variant] | 0.869 | 1.43 | 1.04 | 1.68 | 1.21 | 1.64
CCACACAUCAAGCAUUCGGUC [Fam1B.1 aminoacylation ribozyme variant] | 1.02 | 1.75 | 1.6 | 1.64 | 1.48 | 1.19
CCACACAUCAAGCGAUCGGUC [Fam1B.1 aminoacylation ribozyme variant] | 0.766 | 0.954 | 1.09 | 1.07 | 0.969 | 1.38
CCACACCCCAAGCAAUCGGUC [Fam1B.1 aminoacylation ribozyme variant] | 1.04 | 1.6 | 0.627 | 1.37 | 1.04 | 0.888
CCACACCUAAAGCAAUCGGUC [Fam1B.1 aminoacylation ribozyme variant] | 1.09 | 1 | 0.876 | 1.31 | 1.02 | 1.01
CCACACCUCAAGCAAUCGGGC [Fam1B.1 aminoacylation ribozyme variant] | 1.92 | 1.86 | 1.49 | 2.33 | 1.71 | 2.11
CCACACCUCAAGCAAUCGGUG [Fam1B.1 aminoacylation ribozyme variant] | 32.5 | 3.55 | 5.05 | 3.17 | 7.12 | 5.99
CCACACCUCACGCAAUCGGUC [Fam1B.1 aminoacylation ribozyme variant] | 1.34 | 1.84 | 1.27 | 1.99 | 1.58 | 2.13
CCACACCUCGAGCAAUCGGUC [Fam1B.1 aminoacylation ribozyme variant] | 0.967 | 1.39 | 1.18 | 1.88 | 1.11 | 1.95
CCACACGACAAGCAAUCGGUC [Fam1B.1 aminoacylation ribozyme variant] | 0.767 | 0.924 | 0.948 | 1.37 | 0.697 | 0.908
CCACACGUCAAGCAAGCGGUC [Fam1B.1 aminoacylation ribozyme variant] | 0.494 | 0.826 | 1.24 | 1.57 | 1.19 | 0.697
CCACACGUCAAGCAAUCGGUC [Fam1B.1 aminoacylation ribozyme variant] | 0.848 | 1.11 | 1.16 | 1.65 | 1.17 | 1.16
CCACACGUCAAGCAAUGGGUC [Fam1B.1 aminoacylation ribozyme variant] | 0.534 | 1.14 | 1.36 | 1.49 | 1.36 | 1.02
CCACACGUCAAGCAGUCGGUC [Fam1B.1 aminoacylation ribozyme variant] | 0.584 | 0.995 | 1.05 | 1.69 | 1.26 | 1.17
CCACACGUCAAGCAUUCGGUC [Fam1B.1 aminoacylation ribozyme variant] | 5.03 | 2.03 | 2.23 | 3.21 | 1.71 | 2.16
CCACACGUCACGCAAUCGGUC [Fam1B.1 aminoacylation ribozyme variant] | 3.73 | 1.58 | 2.03 | 2.16 | 1.84 | 1.95

Sequence | self-aminoacylation (biotinyl-Phe-oxazolone) | self-aminoacylation (biotinyl-Ile-oxazolone) | self-aminoacylation (biotinyl-Met-oxazolone) | self-aminoacylation (biotinyl-Val-oxazolone) | self-aminoacylation (biotinyl-Leu-oxazolone) | self-aminoacylation (biotinyl-Trp-oxazolone)
CCACACGUUAAGCAAUCGGUC [Fam1B.1 aminoacylation ribozyme variant] | 1.05 | 1.09 | 0.992 | 1.15 | 0.93 | 0.931
CCACACUACAAGCAAUCGGCC [Fam1B.1 aminoacylation ribozyme variant] | 1.99 | 2.44 | 2.7 | 2.06 | 1.57 | 1.78
CCACACUACUAGCAAUCGGUC [Fam1B.1 aminoacylation ribozyme variant] | 0.743 | 0.798 | 0.694 | 0.753 | 0.71 | 0.623
CCACACUCCAAGCAACCGGUC [Fam1B.1 aminoacylation ribozyme variant] | 0.853 | 1.24 | 0.814 | 1.44 | 1.19 | 0.654
CCACACUCCAUGCAAUCGGUC [Fam1B.1 aminoacylation ribozyme variant] | 0.866 | 0.982 | 0.676 | 1.05 | 0.901 | 0.663
CCACACUGCAAGCAACCGGUC [Fam1B.1 aminoacylation ribozyme variant] | 0.966 | 1.53 | 1.49 | 1.79 | 1.25 | 1.07
CCACACUGCAAGCAAGCGGUC [Fam1B.1 aminoacylation ribozyme variant] | 1.05 | 1.34 | 0.878 | 1.61 | 1.23 | 1
CCACACUGCAAGCAAUUGGUC [Fam1B.1 aminoacylation ribozyme variant] | 0.969 | 1.14 | 0.87 | 0.956 | 0.961 | 0.59
CCACACUGCAAGCAUUCGGUC [Fam1B.1 aminoacylation ribozyme variant] | 8.26 | 2.37 | 2.04 | 2.96 | 2.58 | 3.51
CCACACUGCGAGCAAUCGGUC [Fam1B.1 aminoacylation ribozyme variant] | 3.33 | 1.21 | 1.07 | 1.51 | 1.25 | 1.21
CCACACUUAAAGCAAUCGGUU [Fam1B.1 aminoacylation ribozyme variant] | 0.794 | 1.08 | 0.896 | 1.15 | 0.849 | 0.916
CCACACUUAAAGCAGUCGGUC [Fam1B.1 aminoacylation ribozyme variant] | 0.946 | 1.08 | 0.942 | 0.872 | 0.985 | 0.621
CCACACUUAAAGCUAUCGGUC [Fam1B.1 aminoacylation ribozyme variant] | 0.762 | 1.03 | 0.887 | 1.1 | 0.915 | 0.89
CCACACUUAAAGUAAUCGGUC [Fam1B.1 aminoacylation ribozyme variant] | 0.772 | 0.82 | 0.695 | 0.836 | 0.744 | 0.875
CCACACUUAACGCAAUCGGUC [Fam1B.1 aminoacylation ribozyme variant] | 0.826 | 1.08 | 0.874 | 1.11 | 0.986 | 1.11
CCACACUUCAAACAAUAGGUC [Fam1B.1 aminoacylation ribozyme variant] | 0.995 | 0.617 | 0.435 | 0.656 | 0.471 | 0.652
CCACACUUCAAACAAUCGGAC [Fam1B.1 aminoacylation ribozyme variant] | 3.27 | 1.01 | 0.88 | 1 | 0.951 | 1.94
CCACACUUCAAACAAUCGGUG [Fam1B.1 aminoacylation ribozyme variant] | 4.88 | 2.96 | 4.77 | 3.01 | 6.19 | 4.19
CCACACUUCAAACAAUCGGUU [Fam1B.1 aminoacylation ribozyme variant] | 29.6 | 1.91 | 1.93 | 2.17 | 2.57 | 21.5
CCACACUUCAAACAAUUGGUC [Fam1B.1 aminoacylation ribozyme variant] | 1.55 | 0.737 | 0.659 | 0.59 | 0.588 | 1
CCACACUUCAAACAGUCGGUC [Fam1B.1 aminoacylation ribozyme variant] | 1.09 | 0.75 | 0.735 | 0.945 | 0.622 | 0.848
CCACACUUCAAACUAUCGGUC [Fam1B.1 aminoacylation ribozyme variant] | 1.09 | 0.976 | 0.781 | 0.909 | 0.83 | 0.882
CCACACUUCAACCAAACGGUC [Fam1B.1 aminoacylation ribozyme variant] | 0.797 | 0.872 | 0.628 | 0.846 | 0.729 | 0.727
CCACACUUCAACCAAUGGGUC [Fam1B.1 aminoacylation ribozyme variant] | 0.603 | 0.685 | 0.499 | 0.759 | 0.593 | 0.377
CCACACUUCAACUAAUCGGUC [Fam1B.1 aminoacylation ribozyme variant] | 22.8 | 0.859 | 0.753 | 0.925 | 1.04 | 11.6
